{
  "source": "patent US8975370B2",
  "about": "“Inhibitor proteins of a protease and use thereof” (Universite de Lausanne, priority 2003, dated 2015)",
  "tested_on": "T1, Cc1cc(=O)oc2cc(NC(=O)[C@H](CCCNC(=N)N)NC(=O)[C@H](Cc3ccccc3)NC(=O)OCc3ccccc3)ccc12",
  "T1 construct": "substrate Z-FR-AMC",
  "test": "Km of PK for its fluorogenic substrate (used for ka correction, eq 2)",
  "format": "biochemical, human",
  "conditions": "other: PK, substrate Z-FR-AMC, kinetics in 50 mM Tris pH 7.5, 150 mM NaCl, 0.05% Triton X-100, 0.01% BSA, 25° C.",
  "excerpt": "hK2 and hK3 (PSA) were purified from human semen as previously described (Frenette G, Gervais Y, Tremblay R R, Dube J Y. 1998 “Contamination of purified prostate-specific antigen preparations by kallikrein hK2” J Urol 159, 1375-8), anti-hK2 and anti-PSA monoclonal antibodies were a gift from Professor R R Tremblay, Laval University, Canada. Human chymotrypsin (Chtr), urokinase plasminogen activator (uPA), human kallikrein hK1, human plasma kallikrein (PK), human neutrophil elastase (HNE) and commercial ACT (human plasma α1-antichymotrypsin) were purchased from Calbiochem. […]\nThe association rate constants for interactions of hK2, chymotrypsin, PK and HNE with different rACTs were determined under pseudo-first order conditions using the progress curve method (Morrison J F, Walsh C T. 1988 “The behavior and significance of slow-binding enzyme inhibitors” Adv. Enzymol. Relat. Areas Mol. Biol 61, 201-301). […] Each reaction was made in reaction buffer (50 mM Tris pH 7.5, 150 mM NaCl, 0.05% Triton X-100, 0.01% BSA) at 25° C. for 45 min and the rate of product formation was measured using a FLx800 fluorescence 96-well microplate reader (Biotek, USA). […]\nFor each inhibitor, a kobs was calculated, for four different concentrations of inhibitors, by non linear regression of the data using equation 1. […]",
  "data": [
    {"substance": "human plasma kallikrein (PK) (Homo sapiens)", "values": [
      {"measurement": "Km", "result": 170, "unit": "µM"}
    ]}
  ]
}
